From patent publication US20250270328A1 (BRIGHAM AND WOMEN S HOSPITAL, published 2025)

T1: human KLRB1 protein extracellular domain (ECD) (human, UniProt Q12918 67-225)
T1 construct: range 67-225; The ELISA and SPR text says only 'human KLRB1 ECD'; also called human KLRB1 ECD; CD161
T1 sequence (looked up): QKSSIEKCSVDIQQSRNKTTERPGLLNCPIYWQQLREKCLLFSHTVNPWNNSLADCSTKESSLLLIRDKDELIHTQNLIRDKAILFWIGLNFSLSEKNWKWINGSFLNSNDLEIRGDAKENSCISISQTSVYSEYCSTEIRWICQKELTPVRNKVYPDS


Biological target: T1, human KLRB1 protein extracellular …
Experiment: SPR, human KLRB1 ECD; format not stated
Protocol: The chimeric antibody 10A3D6-hIgGlk (a mouse/human chimeric antibody with 10A3D6 variable regions and human IgG1-kappa constant regions), chimeric mutated variants (10A3D6C109S, 10A3D6C109F, and 10A3D6C109V), and humanized variants of 10A3D6 created by CDR grafting (Almagro et al. 2008) were assayed for binding against human KLRB1 extracellular domain (ECD) via surface plasma resonance (SPR).

Row | Kd | koff | kon | Binder
1 | 15.8 nM | 0.00721 s⁻¹ | 457000 M⁻¹ s⁻¹ | 10A3D6C109Chum3.1 (antibody, V domains shown, Humanized variant of 10A3D6 made by CDR grafting) VH: QVQLVQSGAEVKKPGASVKVSCKASGYSFTGYTMNWVRQAHGQNLEWIGLINPNTGGTYYNQKFKDRVTLTVDTSISTAYMELSRLRSDDTAVYYCARLGDNYRGYFDCWGQGTTVTVSS VL: DIQLTQSPSFLSASVGDRVTITCKASQDVGTAVVWYQQKPGKAPKLLIYWASIRHTGVPSRFSGSGSGTEFTLTISSLQPEDFATYYCQQYSTYLYTFGGGTKLEIK
2 | 12.9 nM | 0.00408 s⁻¹ | 315000 M⁻¹ s⁻¹ | 10A3D6C109Chum2.1 (antibody, V domains shown, Humanized variant of 10A3D6 made by CDR grafting) VH: QVQLVQSGAEVKKPGASVKVSCKASGYSFTGYTMNWVRQAPGQNLEWIGLINPNTGGTYYNQKFKDRVTLTVDTSISTAYMELSRLRSDDTAVYYCARLGDNYRGYFDCWGQGTTVTVSS VL: DIQLTQSPSFLSASVGDRVTITCKASQDVGTAVVWYQQKPGKAPKLLIYWASIRHTGVPSRFSGSGSGTEFTLTISSLQPEDFATYYCQQYSTYLYTFGGGTKLEIK
3 | 0.0985 nM | 9.41e-05 s⁻¹ | 955000 M⁻¹ s⁻¹ | 10A3D6C109Chum2.3 (antibody, V domains shown, Humanized variant of 10A3D6 made by CDR grafting) VH: QVQLVQSGAEVKKPGASVKVSCKASGYSFTGYTMNWVRQAPGQNLEWIGLINPNTGGTYYNQKFKDRVTLTVDTSISTAYMELSRLRSDDTAVYYCARLGDNYRGYFDCWGQGTTVTVSS VL: DIQLTQSPSFLSASVGDRVTITCKASQDVGTAVVWYQQTPGKAPKLLIDWASIRHTGVPSRFSGSGSGTEFTLTISSLQPEDFADYFCQQYSTYLYTFGGGTKLEIK
4 | 0.1 nM | 0.0001 s⁻¹ | 999000 M⁻¹ s⁻¹ | 10A3D6C109Chum1.3 (antibody, V domains shown, Humanized variant of 10A3D6 made by CDR grafting) VH: QVQLVQSGAEVKKPGASVKVSCKASGYSFTGYTMNWVRQAPGQGLEWMGLINPNTGGTYYNQKFKDRVTMTRDTSISTAYMELSRLRSDDTAVYYCARLGDNYRGYFDCWGQGTTVTVSS VL: DIQLTQSPSFLSASVGDRVTITCKASQDVGTAVVWYQQTPGKAPKLLIDWASIRHTGVPSRFSGSGSGTEFTLTISSLQPEDFADYFCQQYSTYLYTFGGGTKLEIK
5 | 0.0976 nM | 9.68e-05 s⁻¹ | 992000 M⁻¹ s⁻¹ | 10A3D6C109Chum2.4 (antibody, V domains shown, Humanized variant of 10A3D6 made by CDR grafting) VH: QVQLVQSGAEVKKPGASVKVSCKASGYSFTGYTMNWVRQAPGQNLEWIGLINPNTGGTYYNQKFKDRVTLTVDTSISTAYMELSRLRSDDTAVYYCARLGDNYRGYFDCWGQGTTVTVSS VL: DIQLTQSPSFLSASVGDRVTITCKASQDVGTAVVWYQQTPGKAPKLLIDWASIRHTGVPDRFSGSGSGTEFTLTISSLQPEDFADYFCQQYSTYLYTFGGGTKLEIK

Second part, the binder before the results:

Row | Binder | Kd | koff | kon
6 | 10A3D6C109Chum1.2 (antibody, V domains shown, Humanized variant of 10A3D6 made by CDR grafting) VH: QVQLVQSGAEVKKPGASVKVSCKASGYSFTGYTMNWVRQAPGQGLEWMGLINPNTGGTYYNQKFKDRVTMTRDTSISTAYMELSRLRSDDTAVYYCARLGDNYRGYFDCWGQGTTVTVSS VL: DIQLTQSPSFLSASVGDRVTITCKASQDVGTAVVWYQQKPGKAPKLLIDWASIRHTGVPSRFSGSGSGTEFTLTISSLQPEDFADYFCQQYSTYLYTFGGGTKLEIK | 0.0932 nM | 9.35e-05 s⁻¹ | 1e+06 M⁻¹ s⁻¹
7 | 10A3D6C109Chum4.3 (antibody, V domains shown, Humanized variant of 10A3D6 made by CDR grafting) VH: QVQLVQSGAEVKKPGASVKVSCKASGYSFTGYTMNWVRQAHGQNLEWIGLINPNTGGTYYNQKFKDRATLTVDTSISTAYMELSRLRSDDTAVYYCARLGDNYRGYFDCWGQGTTVTVSS VL: DIQLTQSPSFLSASVGDRVTITCKASQDVGTAVVWYQQTPGKAPKLLIDWASIRHTGVPSRFSGSGSGTEFTLTISSLQPEDFADYFCQQYSTYLYTFGGGTKLEIK | 0.127 nM | 0.000109 s⁻¹ | 851000 M⁻¹ s⁻¹
8 | 10A3D6C109Chum3.3 (antibody, V domains shown, Humanized variant of 10A3D6 made by CDR grafting) VH: QVQLVQSGAEVKKPGASVKVSCKASGYSFTGYTMNWVRQAHGQNLEWIGLINPNTGGTYYNQKFKDRVTLTVDTSISTAYMELSRLRSDDTAVYYCARLGDNYRGYFDCWGQGTTVTVSS VL: DIQLTQSPSFLSASVGDRVTITCKASQDVGTAVVWYQQTPGKAPKLLIDWASIRHTGVPSRFSGSGSGTEFTLTISSLQPEDFADYFCQQYSTYLYTFGGGTKLEIK | 0.109 nM | 9.89e-05 s⁻¹ | 905000 M⁻¹ s⁻¹
9 | 10A3D6C109Chum1.4 (antibody, V domains shown, Humanized variant of 10A3D6 made by CDR grafting) VH: QVQLVQSGAEVKKPGASVKVSCKASGYSFTGYTMNWVRQAPGQGLEWMGLINPNTGGTYYNQKFKDRVTMTRDTSISTAYMELSRLRSDDTAVYYCARLGDNYRGYFDCWGQGTTVTVSS VL: DIQLTQSPSFLSASVGDRVTITCKASQDVGTAVVWYQQTPGKAPKLLIDWASIRHTGVPDRFSGSGSGTEFTLTISSLQPEDFADYFCQQYSTYLYTFGGGTKLEIK | 0.0717 nM | 8.6e-05 s⁻¹ | 1.2e+06 M⁻¹ s⁻¹
10 | 10A3D6C109Chum4.2 (antibody, V domains shown, Humanized variant of 10A3D6 made by CDR grafting) VH: QVQLVQSGAEVKKPGASVKVSCKASGYSFTGYTMNWVRQAHGQNLEWIGLINPNTGGTYYNQKFKDRATLTVDTSISTAYMELSRLRSDDTAVYYCARLGDNYRGYFDCWGQGTTVTVSS VL: DIQLTQSPSFLSASVGDRVTITCKASQDVGTAVVWYQQKPGKAPKLLIDWASIRHTGVPSRFSGSGSGTEFTLTISSLQPEDFADYFCQQYSTYLYTFGGGTKLEIK | 0.121 nM | 0.000107 s⁻¹ | 880000 M⁻¹ s⁻¹
11 | 10A3D6C109Chum4.4 (antibody, V domains shown, Humanized variant of 10A3D6 made by CDR grafting) VH: QVQLVQSGAEVKKPGASVKVSCKASGYSFTGYTMNWVRQAHGQNLEWIGLINPNTGGTYYNQKFKDRATLTVDTSISTAYMELSRLRSDDTAVYYCARLGDNYRGYFDCWGQGTTVTVSS VL: DIQLTQSPSFLSASVGDRVTITCKASQDVGTAVVWYQQTPGKAPKLLIDWASIRHTGVPDRFSGSGSGTEFTLTISSLQPEDFADYFCQQYSTYLYTFGGGTKLEIK | 0.103 nM | 9.88e-05 s⁻¹ | 963000 M⁻¹ s⁻¹
12 | 10A3D6C109Chum3.2 (antibody, V domains shown, Humanized variant of 10A3D6 made by CDR grafting) VH: QVQLVQSGAEVKKPGASVKVSCKASGYSFTGYTMNWVRQAHGQNLEWIGLINPNTGGTYYNQKFKDRVTLTVDTSISTAYMELSRLRSDDTAVYYCARLGDNYRGYFDCWGQGTTVTVSS VL: DIQLTQSPSFLSASVGDRVTITCKASQDVGTAVVWYQQKPGKAPKLLIDWASIRHTGVPSRFSGSGSGTEFTLTISSLQPEDFADYFCQQYSTYLYTFGGGTKLEIK | 0.135 nM | 0.000112 s⁻¹ | 832000 M⁻¹ s⁻¹
13 | 10A3D6C109Chum4.1 (antibody, V domains shown, Humanized variant of 10A3D6 made by CDR grafting) VH: QVQLVQSGAEVKKPGASVKVSCKASGYSFTGYTMNWVRQAHGQNLEWIGLINPNTGGTYYNQKFKDRATLTVDTSISTAYMELSRLRSDDTAVYYCARLGDNYRGYFDCWGQGTTVTVSS VL: DIQLTQSPSFLSASVGDRVTITCKASQDVGTAVVWYQQKPGKAPKLLIYWASIRHTGVPSRFSGSGSGTEFTLTISSLQPEDFATYYCQQYSTYLYTFGGGTKLEIK | 21.7 nM | 0.00253 s⁻¹ | 117000 M⁻¹ s⁻¹
14 | 10A3D6C109Chum3.4 (antibody, V domains shown, Humanized variant of 10A3D6 made by CDR grafting) VH: QVQLVQSGAEVKKPGASVKVSCKASGYSFTGYTMNWVRQAHGQNLEWIGLINPNTGGTYYNQKFKDRVTLTVDTSISTAYMELSRLRSDDTAVYYCARLGDNYRGYFDCWGQGTTVTVSS VL: DIQLTQSPSFLSASVGDRVTITCKASQDVGTAVVWYQQTPGKAPKLLIDWASIRHTGVPDRFSGSGSGTEFTLTISSLQPEDFADYFCQQYSTYLYTFGGGTKLEIK | 0.0907 nM | 9.2e-05 s⁻¹ | 1.01e+06 M⁻¹ s⁻¹
